Patent US20190153112A1 (IMMUTEP S A S, published 2019)

B1: chimeric 13E2-human IgG4 antibody Chim13E2IgG4 (antibody, V domains shown)
VH: QVTLKESGPGILQPSQTLSLTCSFSGFSLSTSGMGLGWIRQPSGKGLEWLTHIWWDDIKRYNPDLRSRLTISKDTSSSQIFLKIASVDTADTATYYCARIVEGSYSSSYFDVWGAGTTVTVSS
VL: DIVMTQPHKFMSTSVEDRVTITCKASQDVIFDVAWYQQKPGQSPKLLIYSASSRVSGVPDRFTGSGSGTDFTFTISSVQAEDLAVYYCQQHYSTPYTFGGGTTLEIKR
notes: The light chain is the 13E2 VL with wild-type human kappa; also called chimeric 13E2 IgG4; heavy chain 13E2IgG4mut
B2: humanized 13E2 monoclonal antibody IMP761 (antibody, human IgG4 S228P, kappa, V domains shown)
VH: QITLKESGPTLVKPTQTLTLTCTFSGFSLSTSGMGLGWIRQPPGKTLEWLTHIWWDDIKRYNPDLRSRLSITKDTSKNQVVLTMTNMDPLDTGTYYCARIVEGSYSSSYFDVWGQGTLVTVSS
VL: DIVMTQTPSSLSASVGDRVTITCKASQDVIFDVAWYQQRPGQAPKLLIYSASSRVSGVPSRFSGSGSGTDFTLTISSLQPEDFATYYCQQHYSTPYTFGQGTRLDIKR
notes: Human IgG4 (S228P) with kappa light chain; also called humanized 13E2 IgG4; VH4/VL3

Target: T1, IMP321 (recombinant soluble human LAG-3Ig fusion protein) (human, UniProt P18627 23-450)
T1 construct: extracellular domain; also called sLAG-3Ig; LC1
T1 sequence (looked up): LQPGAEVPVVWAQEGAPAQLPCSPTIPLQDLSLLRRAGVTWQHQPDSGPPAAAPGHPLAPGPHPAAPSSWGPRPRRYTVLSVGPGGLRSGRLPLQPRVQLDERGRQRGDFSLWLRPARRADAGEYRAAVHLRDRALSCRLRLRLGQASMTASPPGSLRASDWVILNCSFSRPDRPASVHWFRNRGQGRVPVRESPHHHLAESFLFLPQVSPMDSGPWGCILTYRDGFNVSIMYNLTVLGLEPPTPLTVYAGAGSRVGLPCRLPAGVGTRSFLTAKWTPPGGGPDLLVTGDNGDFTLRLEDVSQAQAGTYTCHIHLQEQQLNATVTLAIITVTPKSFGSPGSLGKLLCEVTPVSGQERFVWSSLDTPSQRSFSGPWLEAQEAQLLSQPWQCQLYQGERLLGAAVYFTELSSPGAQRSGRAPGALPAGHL
Test: Biacore T200 SPR, antibody immobilized on C1 chip, IMP321 0.078-2.5 nM as analyte, 25 °C, 1:1 fit, average of three runs
Protocol: A Biacore™ surface plasmon resonance analysis was performed using the chimeric antibody Chim13E2IgG4 (comprising the chimeric heavy chain 13E2IgG4mut, and the chimeric light chain 13E2IgK, described in Example 17), or the humanized 13E2 antibody (IMP761) described in Example 18, covalently immobilized to a C1 sensor chip. The coating was performed in 10 mM sodium acetate, pH 5.0, to reach 13±1 RU. The recombinant human LAG-3Ig protein (IMP321) was then passed over the captured antibodies at 6 different concentrations, ranging from 0.078-2.5 nM, in analysis buffer (10 mM HEPES pH 7.4, 150 mM NaCl, 3 mM EDTA, 0.05% Tween 20) at 25° C., with regeneration in every cycle. The analysis was carried out on Biacore™ T200 and the data was fitted using the kinetic global fit (Langmuir 1:1) model. The kinetics parameters are recorded in Table 29, and represent the average of three runs.

Binder	Kd [nM]	koff [s⁻¹]	kon [M⁻¹ s⁻¹]
B1	0.0219	0.00064	2.9e+07
B2	0.0228	0.00066	2.9e+07
